According to article PMC10723116:

Target: H3K9me3 chromatin arrays (12 x 200 bp x 601 oligonucleosomes with H3K9-trimethylated histone H3) (Xenopus | not stated) (UniProt P84233)

degree of association of H3K9me3 chromatin arrays (40 nM) with 5 μM protein, chromatin association assay: 20%
Substance: HP1α-K42 (K42Q mutant of human HP1α) (from UniProt P45973 1-191) (natural protein)
